Reference: the supplement of paper PMC12042874
± gives the uncertainty stated by the source.

Test: amyloid nucleation score (Sup35N fusion, yeast selection) (log enrichment); library NNK1; higher = more nucleation; inactive = no reads after selection
Outline: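 Libraries of peptides of 20 random codons fused to Sup35N were expressed in psi-negative yeast and induced 24 hours with 100 μM copper sulfate. Selection was 7 days at 30°C on medium lacking adenine and uracil, and plasmid inserts were Illumina-sequenced before and after selection. Nucleation score is the DiMSum log enrichment of output over input reads, centred on the mode score of non-aggregating sequences, and sequences with under 100 input reads were left out.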

Substance | amyloid nucleation score
VIVHIWRET | 3.92 ± 0.11
VIVQKSLS | -0.086 ± 0.61
VIVWGSRSFLGC | 3.49 ± 0.1
VIVWVWSCVM | 6.247 ± 0.055
VIYFLRYHLFNSLVSPHNRR | inactive
VKCGLG | 0.696 ± 0.84
VKFKGTTLCYIFDMDFMHGI | 0.948 ± 0.14
VKLAVREVTSEMPREKLTVA | 0.236 ± 0.26
VKQSST | 0.212 ± 0.66
VKRHNLLCWRFMDFTINLGG | 4.01 ± 0.13
VKSGALKYRKIGAYGTGSRL | 0.728 ± 1.2
VKSRYLFRCSLLFEHDTGIC | 0.01 ± 0.23
VKTPSVRIKWDVISLSLPCA | 0.156 ± 0.53
VKYGDSRLADAWNFVSNK | -0.476 ± 0.3
VLEYPSTSAARFSHRVKRK | 8.434 ± 0.047
VLGRRKMIQVNFNFKYLSWD | 1.62 ± 0.45
VLIGSLLCN | 0.878 ± 0.41
VLIMYYGCLDDFLLRDYSLL | 0.856 ± 0.67
VLKGNKRRVLNAWVAYVLRS | 0.273 ± 0.35
VLLADVCLSVERGKVTDPGS | 1.25 ± 0.58
VLNLIRRGIWGYHHEMGTG | -0.947 ± 0.81
VLNYHLH | -0.569 ± 0.79
VLRNDTMGAGANF | -1.3 ± 0.39
VLRRLRSWRKVELENNRGKM | inactive
VLSWWTTNPSVMENTCCPWS | 2.09 ± 0.32
VLTWMDVTDLLGCVLKLSPV | 1.36 ± 0.45

Substance | amyloid nucleation score
VLVKQGVMA | 0.868 ± 0.78
VLVSSCSTGDLVSSDPHSSV | inactive
VLYMVEACLVWGIRQSESAV | 0.393 ± 0.73
VLYSELLGFRKSIIIMVWTR | -0.015 ± 0.28
VMDYYTMFFEMPRGRALIAN | inactive
VMKLAVRR | -0.114 ± 0.91
VMLAGSDWLNGFRAESFCGI | -1.35 ± 2.1
VMLPHHWSLNKNY | 0.264 ± 0.29
VMSATVSSFWTEVCRMRTVT | 1.14 ± 0.66
VMSGRCFTRCAFGLQRVPSV | 0.033 ± 0.63
VMSVSWVCIGCLSEDISWVF | 5.884 ± 0.044
VMYLSGCHLRLKCYLGSFNR | 5.51 ± 0.076
VMYVPPMACSLS | -0.315 ± 0.77
VNAMSLLILDAVLDKEQW | 0.921 ± 1
VNDQAGRLGD | 0.904 ± 0.61
VNEFLRFFLWSHLQWMI | -0.045 ± 0.28
VNGQYMRSHWFGDTTLLPIC | -0.316 ± 0.24
VNIRVRD | 0.023 ± 0.33
VNKHL | -0.329 ± 0.36
VNKRISGTLHDTYEGDLCL | -0.418 ± 0.75
VNNYTF | 0.234 ± 0.28
VNRFANVLRR | 0.234 ± 0.29
VNRGVVVRITWIAKHYCMSE | 0.26 ± 0.38
VNRYEVPLLGRRHDCEFSRT | -0.806 ± 1.1
VNSSPFFMYKGVHFTWTYYS | 4.51 ± 0.1
VNVFYLMFQNIIIQVFLCVF | inactive

Substance | amyloid nucleation score
VNVKSVRYRKMSLGVYLVDW | 0.261 ± 0.68
VNWFTR | 0.582 ± 0.56
VPALQQIPYCMI | 0.524 ± 0.57
VPENLKRMRVRAVSLGMSGE | 1.44 ± 0.5
VPHLNGCISFWNVSVGYKVP | 5.44 ± 0.077
VPPASQISGPWARLSEMVSH | -1.12 ± 0.7
VPRVYMFKFGIILFFYMHKA | -0.273 ± 0.3
VPSSTVVDHSIYRGDMPSFA | 0.163 ± 0.41
VPYRFPRMVKYGSMDFTSLE | 4.03 ± 0.094
VQADFFCSAPGHCIWVNGMR | 1.73 ± 0.31
VQFLIKPDLMTG | inactive
VQIDK | 0.514 ± 0.33
VRCCGPFRACIVLLAITKDG | -0.393 ± 1.4
VRCIVTERLTLAMDW | 0.199 ± 0.47
VREGPRSRSGG | 0.149 ± 0.41
VRFTTIVYPSWFFSAW | 0.565 ± 0.45
VRGHKWVAWNWMRVARAEQE | -0.257 ± 0.99
VRHDITARERLSGLWQ | -0.047 ± 1.1
VRHLRR | -0.496 ± 0.55
VRKNSERGVK | -0.591 ± 0.4
VRNETSCTAIVFRSE | 0.14 ± 0.22
VRRVPKLVHAADLELWAGSE | -0.754 ± 1.1
VRSCTWCGSEGPGTIPWLGD | 0.443 ± 0.39
VRSFVHTWLDTTWA | -0.025 ± 0.36
VRSNGYHVMFNTINRVWDTV | 0.672 ± 0.44
VRSPDSLVVWDLVRH | -0.367 ± 0.49

Substance | amyloid nucleation score
VRTYWTYANWIFMYKKRAQA | -1.85 ± 2.4
VRVISLEVLGYFCPRRLAGA | inactive
VRVLGVIMYARLLPVGLWGY | inactive
VRVSVLLVYSGGRFSFPWVL | -0.063 ± 1.4
VSCGDELVGDRI | 0.171 ± 0.36
VSCLNLIVSWYYANFGN | -0.17 ± 0.32
VSCWRTVRTAF | 0.893 ± 0.59
VSEIFFWFKSWRRRLRLRMG | inactive
VSFTSIHMVIEDLRIKLNPA | -0.426 ± 0.71
VSGAIRRDYIFDVIGRPTV | inactive
VSGDPNMRLCAISIATGFVF | -0.468 ± 0.63
VSGLRRSRSWWAFDVQSLLR | 0.544 ± 0.55
VSGVYLRFRASCRSY | -0.105 ± 0.58
VSHDGGLLRVWFMLALREGN | 0.003 ± 0.49
VSIRTGGTCHYT | 0.123 ± 0.28
VSKLLCLRMHMLKLW | -0.48 ± 0.48
VSKSYPIPCISKVS | 0.336 ± 0.52
VSLHSRINTVSPRKGLGSYS | 0.275 ± 0.71
VSLINRRYCPATVFGF | 0.117 ± 0.4
VSNFLSYNRWAHHGLFNSSF | 0.553 ± 0.53
VSPGVFMGVLLMALKFFQAK | -0.303 ± 0.71
VSRPQMSSTTEHSTTDYFGC | inactive
VSRWSGEEPISCSYGTLR | -0.164 ± 0.6
VSSHSMGFIVSVVMTCEYRS | 1.23 ± 0.7
VSSNYMRNML | 0.169 ± 0.34
VSTNKRVVGMRRFGTYTRYV | -0.309 ± 0.6

Substance | amyloid nucleation score
VSTQIRRDGYDYAAVGHC | 0.009 ± 0.8
VSVFDVWRMQCGNSLVKEGG | -0.088 ± 0.42
VSWWNCLL | -1.28 ± 2.4
VSYQGTSAFDGSRKVVGPTL | 0.353 ± 0.54
VTHGHVGTVGSWVVRTTAFM | -0.937 ± 2.1
VTLPSAMQGSHFTWGPNVAF | -0.422 ± 1.2
VTLQQRLCSFYMLIVEFASS | 0.045 ± 0.43
VTMNRIV | 0.501 ± 0.21
VTRTYLNRMRSMLSGSMFFM | 0.423 ± 0.35
VVATKLSV | -0.95 ± 1.4
VVCARVLRWEVGYVFGKIER | inactive
VVCVLRVVDVMFASRS | 0.694 ± 1.2
VVFRGAVREVQGSWESCILA | 0.676 ± 0.52
VVHRALLYGNGIVN | 1.4 ± 0.7
VVIGILSEYATKTNWFCSIY | 1.08 ± 0.2
VVLDAFIPWYSLLATSSVGA | -0.777 ± 2.4
VVLGLWV | inactive
VVLKNHRHSVLSWWLTS | -0.622 ± 0.56
VVLLQLQCHEPFYSPKPQQA | -0.048 ± 0.51
VVLPGYMLNGFPNESNLIWP | -1.22 ± 0.49
VVLPRLRGNLVCDEIES | 2.07 ± 0.53
VVMNLLVLIGYLSSLYFLQA | -1.04 ± 1.9
VVMQACNLNMCFMNGCRRGC | 7.304 ± 0.045
